Experimental data from the supplement of paper PMC9112550, “Optimization of the antimicrobial peptide Bac7 by deep mutational scanning” (BMC Biology, 2022).

System: Escherichia coli TOP10
Experiment: shrunken log2 fold change of peptide-encoding DNA abundance (4.5 h post-induction vs induction); higher = less antimicrobial activity (less host growth inhibition)
Conditions: time post-induction: 4.5 h; library: site-saturation at positions 5, 18, 19, 20
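Further: peptides expressed intracellularly from a pBAD plasmid library in pooled LB shake-flask culture, induced with 0.3% L-arabinose, DNA abundance read by NGS, three biological replicates, DESeq2 with apeglm shrinkage.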

**Q.** For RRIRMRPPRLPRPRPRPYPNPRP, which “shrunken log2 fold change” value is on record?
**A.** -0.021

**Q.** Which “shrunken log2 fold change” value does the source give for RRIRGRPPRLPRPRPRPPVIPRP here?
**A.** -0.0488

**Q.** How did the “shrunken log2 fold change” value turn out when RRIRFRPPRLPRPRPRPKQTPRP was run?
**A.** 1.01

**Q.** For RRIRARPPRLPRPRPRPEIYPRP, which “shrunken log2 fold change” value is on record?
**A.** -0.0195

**Q.** How did the “shrunken log2 fold change” value turn out when RRIRERPPRLPRPRPRPQERPRP was run?
**A.** 0.061

**Q.** Which “shrunken log2 fold change” value does the source give for RRIRIRPPRLPRPRPRPTGIPRP here?
**A.** -0.0849

**Q.** RRIRARPPRLPRPRPRPDPMPRP was tested. Which “shrunken log2 fold change” value did it give?
**A.** 1.02

**Q.** With RRIRARPPRLPRPRPRPIMNPRP as the sequence, how does the “shrunken log2 fold change” value read?
**A.** -0.151

**Q.** With RRIRNRPPRLPRPRPRPRYPPRP as the sequence, how does the “shrunken log2 fold change” value read?
**A.** -0.121

**Q.** For RRIRCRPPRLPRPRPRPGQGPRP, which “shrunken log2 fold change” value is on record?
**A.** 0.43

**Q.** Which “shrunken log2 fold change” value does the source give for RRIRQRPPRLPRPRPRPFQVPRP here?
**A.** 0.0303

**Q.** With RRIRTRPPRLPRPRPRPWKRPRP as the sequence, how does the “shrunken log2 fold change” value read?
**A.** 0.0299

**Q.** Which “shrunken log2 fold change” value does the source give for RRIRGRPPRLPRPRPRPGEDPRP here?
**A.** 0.872

**Q.** How did the “shrunken log2 fold change” value turn out when RRIRHRPPRLPRPRPRPKYGPRP was run?
**A.** 0.0196

**Q.** For RRIRTRPPRLPRPRPRPKQFPRP, which “shrunken log2 fold change” value is on record?
**A.** -0.103

**Q.** RRIRMRPPRLPRPRPRPHTGPRP was tested. Which “shrunken log2 fold change” value did it give?
**A.** 0.0957

**Q.** For RRIRWRPPRLPRPRPRPRSVPRP, which “shrunken log2 fold change” value is on record?
**A.** 0.247

**Q.** Which “shrunken log2 fold change” value does the source give for RRIRERPPRLPRPRPRPTWYPRP here?
**A.** -0.217

**Q.** Which “shrunken log2 fold change” value does the source give for RRIRMRPPRLPRPRPRPFYYPRP here?
**A.** -0.527

**Q.** With RRIRCRPPRLPRPRPRPWSEPRP as the sequence, how does the “shrunken log2 fold change” value read?
**A.** -0.0285

**Q.** How did the “shrunken log2 fold change” value turn out when RRIRHRPPRLPRPRPRPCILPRP was run?
**A.** -0.134

**Q.** Which “shrunken log2 fold change” value does the source give for RRIRPRPPRLPRPRPRPQRNPRP here?
**A.** 0.147

**Q.** For RRIRHRPPRLPRPRPRPSEAPRP, which “shrunken log2 fold change” value is on record?
**A.** -0.344

**Q.** Which “shrunken log2 fold change” value does the source give for RRIRMRPPRLPRPRPRPLVLPRP here?
**A.** 0.141

**Q.** For RRIRARPPRLPRPRPRPPIEPRP, which “shrunken log2 fold change” value is on record?
**A.** 0.188

**Q.** With RRIRTRPPRLPRPRPRPMHAPRP as the sequence, how does the “shrunken log2 fold change” value read?
**A.** -0.112

**Q.** How did the “shrunken log2 fold change” value turn out when RRIRVRPPRLPRPRPRPNLEPRP was run?
**A.** 0.0543

**Q.** How did the “shrunken log2 fold change” value turn out when RRIRFRPPRLPRPRPRPLATPRP was run?
**A.** -0.00506

**Q.** For RRIRPRPPRLPRPRPRPDRNPRP, which “shrunken log2 fold change” value is on record?
**A.** -0.0925

**Q.** With RRIRCRPPRLPRPRPRPESFPRP as the sequence, how does the “shrunken log2 fold change” value read?
**A.** 0.0159

**Q.** How did the “shrunken log2 fold change” value turn out when RRIRDRPPRLPRPRPRPKWSPRP was run?
**A.** -0.0182

**Q.** For RRIRNRPPRLPRPRPRPAEIPRP, which “shrunken log2 fold change” value is on record?
**A.** -0.107

**Q.** For RRIRGRPPRLPRPRPRPYATPRP, which “shrunken log2 fold change” value is on record?
**A.** 1.81

**Q.** RRIRFRPPRLPRPRPRPCVCPRP was tested. Which “shrunken log2 fold change” value did it give?
**A.** 0.143

**Q.** For RRIRRRPPRLPRPRPRPRQDPRP, which “shrunken log2 fold change” value is on record?
**A.** 0.274

**Q.** With RRIRKRPPRLPRPRPRPNLGPRP as the sequence, how does the “shrunken log2 fold change” value read?
**A.** 0.207

**Q.** Which “shrunken log2 fold change” value does the source give for RRIRCRPPRLPRPRPRPHWFPRP here?
**A.** -0.0681

**Q.** With RRIRLRPPRLPRPRPRPSIVPRP as the sequence, how does the “shrunken log2 fold change” value read?
**A.** -0.294

**Q.** How did the “shrunken log2 fold change” value turn out when RRIRIRPPRLPRPRPRPYGVPRP was run?
**A.** -0.266

**Q.** With RRIRSRPPRLPRPRPRPWFHPRP as the sequence, how does the “shrunken log2 fold change” value read?
**A.** -0.664

**Q.** How did the “shrunken log2 fold change” value turn out when RRIRHRPPRLPRPRPRPHARPRP was run?
**A.** 0.0947

**Q.** Which “shrunken log2 fold change” value does the source give for RRIRARPPRLPRPRPRPYRHPRP here?
**A.** -0.157

**Q.** How did the “shrunken log2 fold change” value turn out when RRIRVRPPRLPRPRPRPIAYPRP was run?
**A.** -0.184

**Q.** With RRIRCRPPRLPRPRPRPCVEPRP as the sequence, how does the “shrunken log2 fold change” value read?
**A.** -0.0788

**Q.** Which “shrunken log2 fold change” value does the source give for RRIRCRPPRLPRPRPRPPAIPRP here?
**A.** 0.532

**Q.** Which “shrunken log2 fold change” value does the source give for RRIRLRPPRLPRPRPRPHMVPRP here?
**A.** -0.336

**Q.** RRIRFRPPRLPRPRPRPDWGPRP was tested. Which “shrunken log2 fold change” value did it give?
**A.** 0.00855

**Q.** For RRIRSRPPRLPRPRPRPCHEPRP, which “shrunken log2 fold change” value is on record?
**A.** 0.0697

**Q.** For RRIRCRPPRLPRPRPRPRQGPRP, which “shrunken log2 fold change” value is on record?
**A.** 0.436

**Q.** With RRIRERPPRLPRPRPRPKIFPRP as the sequence, how does the “shrunken log2 fold change” value read?
**A.** 0.0686

**Q.** With RRIRPRPPRLPRPRPRPIDSPRP as the sequence, how does the “shrunken log2 fold change” value read?
**A.** -0.018

**Q.** With RRIRWRPPRLPRPRPRPYFAPRP as the sequence, how does the “shrunken log2 fold change” value read?
**A.** -0.216

**Q.** Which “shrunken log2 fold change” value does the source give for RRIRSRPPRLPRPRPRPYSTPRP here?
**A.** -1.05

**Q.** How did the “shrunken log2 fold change” value turn out when RRIRLRPPRLPRPRPRPYSEPRP was run?
**A.** -1.71

**Q.** How did the “shrunken log2 fold change” value turn out when RRIRSRPPRLPRPRPRPPHRPRP was run?
**A.** 0.182

**Q.** For RRIRQRPPRLPRPRPRPWPIPRP, which “shrunken log2 fold change” value is on record?
**A.** -0.152

**Q.** For RRIRYRPPRLPRPRPRPHCHPRP, which “shrunken log2 fold change” value is on record?
**A.** -0.735

**Q.** Which “shrunken log2 fold change” value does the source give for RRIRRRPPRLPRPRPRPLGDPRP here?
**A.** 0.682

**Q.** For RRIRNRPPRLPRPRPRPWARPRP, which “shrunken log2 fold change” value is on record?
**A.** 0.0712

**Q.** For RRIRHRPPRLPRPRPRPSNYPRP, which “shrunken log2 fold change” value is on record?
**A.** -0.28

**Q.** RRIRNRPPRLPRPRPRPDFDPRP was tested. Which “shrunken log2 fold change” value did it give?
**A.** -0.0771

**Q.** For RRIRMRPPRLPRPRPRPPADPRP, which “shrunken log2 fold change” value is on record?
**A.** 2.99

**Q.** Which “shrunken log2 fold change” value does the source give for RRIRYRPPRLPRPRPRPAWMPRP here?
**A.** -0.0583

**Q.** With RRIRARPPRLPRPRPRPDARPRP as the sequence, how does the “shrunken log2 fold change” value read?
**A.** 0.355

**Q.** How did the “shrunken log2 fold change” value turn out when RRIRGRPPRLPRPRPRPDDKPRP was run?
**A.** 0.22

**Q.** For RRIRSRPPRLPRPRPRPCNMPRP, which “shrunken log2 fold change” value is on record?
**A.** -0.221

**Q.** With RRIRARPPRLPRPRPRPCFDPRP as the sequence, how does the “shrunken log2 fold change” value read?
**A.** 0.191

**Q.** With RRIRNRPPRLPRPRPRPDSGPRP as the sequence, how does the “shrunken log2 fold change” value read?
**A.** -0.166

**Q.** RRIRFRPPRLPRPRPRPCLNPRP was tested. Which “shrunken log2 fold change” value did it give?
**A.** -0.244

**Q.** For RRIRPRPPRLPRPRPRPYGAPRP, which “shrunken log2 fold change” value is on record?
**A.** -0.306

**Q.** RRIRERPPRLPRPRPRPIIQPRP was tested. Which “shrunken log2 fold change” value did it give?
**A.** -0.386

**Q.** For RRIRARPPRLPRPRPRPVYLPRP, which “shrunken log2 fold change” value is on record?
**A.** -0.622

**Q.** For RRIRIRPPRLPRPRPRPPYTPRP, which “shrunken log2 fold change” value is on record?
**A.** -0.822

**Q.** RRIRYRPPRLPRPRPRPRFFPRP was tested. Which “shrunken log2 fold change” value did it give?
**A.** -0.0565

**Q.** RRIRTRPPRLPRPRPRPHIAPRP was tested. Which “shrunken log2 fold change” value did it give?
**A.** -0.348
